Binding result and EC50 data for 1 molecule are collected here from patent US20240108745A1 (MEDILINK THERAPEUTICS SUZHOU, published 2024).

The target of experiment [1] is T1, rat Her3-his (rat, UniProt Q62799 20-643).
T1 construct: also called rat Her3 protein
Put plainly: ELISA, rat Her3-his coated at 1 µg/mL, anti-human Fc-HRP. The method, then:
(§1) The affinity of anti-Her3 antibody to Her3 protein was detected by ELISA experimental method. Specific experimental procedures: human Her3-his, monkey Her3-his protein and rat Her3-his was diluted with carbonate buffer with a pH value of 9.6 to a final concentration of 1 μg/mL, and then added to 96-well enzyme labelling wells at 100 μL/well, and coated overnight at 4° C.; the coating solution was discarded, and the plate was washed once with PBST, then 100 μL of PBS (containing 2% BSA) was added to each well, and blocked at 37° C. for 1 h; then, 100 μL of anti-Her3 antibody diluted with PBS (containing 2% BSA) ((starting at 1 μg, 3 folds serial dilution, in duplicate wells) was added to each well, and then incubated at 37° C. for 2 h; the plate was washed three times with PBST, and horseradish peroxidase-labeled anti-human Fc antibody (diluted at 1:10000 with PBS) was added at 100 μL/well, then reacted for 1 h at 37° C. The plate was washed 5 times with PBST. TMB chromogenic solution was added at 100 μL/well and incubated at 37° C. for 7 min to develop color, and then the stop solution was added at 50 μL/well to terminate the reaction.
In general terms: An ELISA detects its analyte on a solid surface through an enzyme-linked reagent.

The target of experiment [2] is T2, monkey Her3-his (monkey).
T2 chain: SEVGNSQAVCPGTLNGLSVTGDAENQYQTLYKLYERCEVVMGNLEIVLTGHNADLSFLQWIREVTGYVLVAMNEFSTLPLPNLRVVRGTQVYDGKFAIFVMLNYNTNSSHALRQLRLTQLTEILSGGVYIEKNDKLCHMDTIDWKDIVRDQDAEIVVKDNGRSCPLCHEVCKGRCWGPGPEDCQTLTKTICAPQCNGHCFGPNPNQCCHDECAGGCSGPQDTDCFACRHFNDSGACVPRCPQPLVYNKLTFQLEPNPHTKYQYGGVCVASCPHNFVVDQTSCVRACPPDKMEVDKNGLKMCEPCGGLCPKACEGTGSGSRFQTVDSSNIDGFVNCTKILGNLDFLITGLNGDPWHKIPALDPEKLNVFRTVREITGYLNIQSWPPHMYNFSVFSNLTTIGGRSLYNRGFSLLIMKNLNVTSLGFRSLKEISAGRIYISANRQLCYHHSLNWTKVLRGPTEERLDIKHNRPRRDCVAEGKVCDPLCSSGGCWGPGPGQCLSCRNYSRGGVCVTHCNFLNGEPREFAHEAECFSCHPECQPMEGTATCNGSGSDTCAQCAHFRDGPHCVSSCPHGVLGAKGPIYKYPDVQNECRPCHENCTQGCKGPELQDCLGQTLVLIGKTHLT
Briefly: ELISA, antigen coated at 1 µg/mL, antibody titrated, anti-human Fc-HRP. The method, then:
as §1

Experiment [3] deals with T3, human Her3-his (human, UniProt P21860 20-643).
T3 construct: range 1-643; also called human Her3 protein
Described as above. The method, then:
as §1

T1 sequence (Q62799 other isoform, or with tags, fused parts or gaps): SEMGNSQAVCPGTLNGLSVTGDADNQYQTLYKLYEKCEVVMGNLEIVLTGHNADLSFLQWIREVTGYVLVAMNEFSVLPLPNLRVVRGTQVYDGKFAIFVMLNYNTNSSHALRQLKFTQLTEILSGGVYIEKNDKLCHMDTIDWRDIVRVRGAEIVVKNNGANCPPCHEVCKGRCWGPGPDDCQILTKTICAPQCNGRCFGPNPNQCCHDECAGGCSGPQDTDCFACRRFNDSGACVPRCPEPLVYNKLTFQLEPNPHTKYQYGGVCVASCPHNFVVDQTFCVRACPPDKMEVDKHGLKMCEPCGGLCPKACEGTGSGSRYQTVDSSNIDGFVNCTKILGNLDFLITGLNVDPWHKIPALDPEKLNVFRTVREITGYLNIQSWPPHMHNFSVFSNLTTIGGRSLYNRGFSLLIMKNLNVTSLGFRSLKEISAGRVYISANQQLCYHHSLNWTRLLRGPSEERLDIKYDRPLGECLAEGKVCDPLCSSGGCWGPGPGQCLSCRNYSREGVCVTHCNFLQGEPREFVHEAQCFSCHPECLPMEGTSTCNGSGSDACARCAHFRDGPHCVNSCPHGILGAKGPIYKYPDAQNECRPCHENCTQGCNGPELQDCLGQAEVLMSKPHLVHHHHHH

B1: anti-Her3 antibody 202-2-1 (antibody, human IgG1, kappa, V domains shown)
VH: EVQLVESGGGVVQPGRSLRLSCAASGFTFSTYGMHWVRQAPGKGLEWVAVIWYDVSHKYYADSVKGRFTISRDNSKNTLSLQMNSLRAEDTAVYYCARDWGDPDAFDIWGQGTMVTVSS
VL: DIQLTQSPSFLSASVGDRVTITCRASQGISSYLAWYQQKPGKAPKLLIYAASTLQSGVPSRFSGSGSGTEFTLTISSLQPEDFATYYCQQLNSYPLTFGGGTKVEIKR
notes: expressed in HEK293F; also called Her3mAb
The EC50 is the concentration giving half of the maximal effect. Turning to B1, in experiment [1], the binding result is “no binding”. The EC50 in experiment [2] worked out at 0.0159 nM; in experiment [3], 0.021 nM.
